Laboratory results taken from publication PMC8215223.

T1: tubulin (endogenous), P07437
T1 chain: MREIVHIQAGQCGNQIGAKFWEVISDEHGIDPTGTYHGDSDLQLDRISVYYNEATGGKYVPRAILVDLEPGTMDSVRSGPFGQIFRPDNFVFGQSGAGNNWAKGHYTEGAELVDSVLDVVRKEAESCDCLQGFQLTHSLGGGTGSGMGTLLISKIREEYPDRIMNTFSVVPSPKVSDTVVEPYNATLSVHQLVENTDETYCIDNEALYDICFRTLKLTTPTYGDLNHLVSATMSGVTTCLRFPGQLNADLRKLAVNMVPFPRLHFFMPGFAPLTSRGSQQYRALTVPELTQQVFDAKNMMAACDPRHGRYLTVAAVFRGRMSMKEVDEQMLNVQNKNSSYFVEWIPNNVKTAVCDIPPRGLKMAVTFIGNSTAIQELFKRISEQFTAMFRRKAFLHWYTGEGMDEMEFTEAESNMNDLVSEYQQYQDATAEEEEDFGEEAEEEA


Target: T1, tubulin (endogenous), P07437
Assay: coIP (co-immunoprecipitation, blot band intensity quantified)
Details: chain shown with the change; HeLa cells, 100 ng/mL nocodazole for 16 hr (+); parent: est. 7.8; read off a plot

Binder | response
GFP-WT-HOOK3, Q86VS8 S238A (protein) MFSVESLERAELCESLLTWIQTFNVDAPCQTVEDLTNGVVMAQVLQKIDPAYFDENWLNRIKTEVGDNWRLKISNLKKILKGILDYNHEILGQQINDFTLPDVNLIGEHSDAAELGRMLQLILGCAVNCEQKQEYIQAIMMMEESVQHVVMTAIQELMSKESPVSAGNDAYVDLDRQLKKTTEELNEALSAKEEIAQRCHELDMQVAALQEEKSSLLAENQVLMERLNQSDSIEDPNAPAGRRHLQLQTQLEQLQEETFRLEAAKDDYRIRCEELEKEISELRQQNDELTTLADEAQSLKDEIDVLRHSSDKVSKLEGQVESYKKKLEDLGDLRRQVKLLEEKNTMYMQNTVSLEEELRKANAARSQLETYKRQVVELQNRLSEESKKADKLDFEYKRLKEKVDSLQKEKDRLRTERDSLKETIEELRCVQAQEGQLTTQGLMPLGSQESSDSLAAEIVTPEIREKLIRLQHENKMLKLNQEGSDNEKIALLQSLLDDANLRKNELETENRLVNQRLLEVQSQVEELQKSLQDQGSKAEDSVLLKKKLEEHLEKLHEANNELQKKRAIIEDLEPRFNNSSLKIEELQEALRKKEEEMKQMEERYKKYLEKAKSVIRTLDPKQNQGAAPEIQALKNQLQERDRLFHSLEKEYEKTKSQREMEEKYIVSAWYNMGMTLHKKAAEDRLASTGSGQSFLARQRQATSSRRSYPGHVQPATAR | 8.8 A.U
GFP-WT-HOOK3, Q86VS8 S238E (protein) MFSVESLERAELCESLLTWIQTFNVDAPCQTVEDLTNGVVMAQVLQKIDPAYFDENWLNRIKTEVGDNWRLKISNLKKILKGILDYNHEILGQQINDFTLPDVNLIGEHSDAAELGRMLQLILGCAVNCEQKQEYIQAIMMMEESVQHVVMTAIQELMSKESPVSAGNDAYVDLDRQLKKTTEELNEALSAKEEIAQRCHELDMQVAALQEEKSSLLAENQVLMERLNQSDSIEDPNEPAGRRHLQLQTQLEQLQEETFRLEAAKDDYRIRCEELEKEISELRQQNDELTTLADEAQSLKDEIDVLRHSSDKVSKLEGQVESYKKKLEDLGDLRRQVKLLEEKNTMYMQNTVSLEEELRKANAARSQLETYKRQVVELQNRLSEESKKADKLDFEYKRLKEKVDSLQKEKDRLRTERDSLKETIEELRCVQAQEGQLTTQGLMPLGSQESSDSLAAEIVTPEIREKLIRLQHENKMLKLNQEGSDNEKIALLQSLLDDANLRKNELETENRLVNQRLLEVQSQVEELQKSLQDQGSKAEDSVLLKKKLEEHLEKLHEANNELQKKRAIIEDLEPRFNNSSLKIEELQEALRKKEEEMKQMEERYKKYLEKAKSVIRTLDPKQNQGAAPEIQALKNQLQERDRLFHSLEKEYEKTKSQREMEEKYIVSAWYNMGMTLHKKAAEDRLASTGSGQSFLARQRQATSSRRSYPGHVQPATAR | 20 A.U
GFP-WT-HOOK3, Q86VS8 S707A (protein) MFSVESLERAELCESLLTWIQTFNVDAPCQTVEDLTNGVVMAQVLQKIDPAYFDENWLNRIKTEVGDNWRLKISNLKKILKGILDYNHEILGQQINDFTLPDVNLIGEHSDAAELGRMLQLILGCAVNCEQKQEYIQAIMMMEESVQHVVMTAIQELMSKESPVSAGNDAYVDLDRQLKKTTEELNEALSAKEEIAQRCHELDMQVAALQEEKSSLLAENQVLMERLNQSDSIEDPNSPAGRRHLQLQTQLEQLQEETFRLEAAKDDYRIRCEELEKEISELRQQNDELTTLADEAQSLKDEIDVLRHSSDKVSKLEGQVESYKKKLEDLGDLRRQVKLLEEKNTMYMQNTVSLEEELRKANAARSQLETYKRQVVELQNRLSEESKKADKLDFEYKRLKEKVDSLQKEKDRLRTERDSLKETIEELRCVQAQEGQLTTQGLMPLGSQESSDSLAAEIVTPEIREKLIRLQHENKMLKLNQEGSDNEKIALLQSLLDDANLRKNELETENRLVNQRLLEVQSQVEELQKSLQDQGSKAEDSVLLKKKLEEHLEKLHEANNELQKKRAIIEDLEPRFNNSSLKIEELQEALRKKEEEMKQMEERYKKYLEKAKSVIRTLDPKQNQGAAPEIQALKNQLQERDRLFHSLEKEYEKTKSQREMEEKYIVSAWYNMGMTLHKKAAEDRLASTGSGQSFLARQRQATSSRRAYPGHVQPATAR | 8.5 A.U

Next, values leading:

response | Binder
12 A.U | GFP-WT-HOOK3, Q86VS8 S707E (protein) MFSVESLERAELCESLLTWIQTFNVDAPCQTVEDLTNGVVMAQVLQKIDPAYFDENWLNRIKTEVGDNWRLKISNLKKILKGILDYNHEILGQQINDFTLPDVNLIGEHSDAAELGRMLQLILGCAVNCEQKQEYIQAIMMMEESVQHVVMTAIQELMSKESPVSAGNDAYVDLDRQLKKTTEELNEALSAKEEIAQRCHELDMQVAALQEEKSSLLAENQVLMERLNQSDSIEDPNSPAGRRHLQLQTQLEQLQEETFRLEAAKDDYRIRCEELEKEISELRQQNDELTTLADEAQSLKDEIDVLRHSSDKVSKLEGQVESYKKKLEDLGDLRRQVKLLEEKNTMYMQNTVSLEEELRKANAARSQLETYKRQVVELQNRLSEESKKADKLDFEYKRLKEKVDSLQKEKDRLRTERDSLKETIEELRCVQAQEGQLTTQGLMPLGSQESSDSLAAEIVTPEIREKLIRLQHENKMLKLNQEGSDNEKIALLQSLLDDANLRKNELETENRLVNQRLLEVQSQVEELQKSLQDQGSKAEDSVLLKKKLEEHLEKLHEANNELQKKRAIIEDLEPRFNNSSLKIEELQEALRKKEEEMKQMEERYKKYLEKAKSVIRTLDPKQNQGAAPEIQALKNQLQERDRLFHSLEKEYEKTKSQREMEEKYIVSAWYNMGMTLHKKAAEDRLASTGSGQSFLARQRQATSSRREYPGHVQPATAR
19 A.U | GFP-WT-HOOK3, Q86VS8 S238A; S707A (protein) MFSVESLERAELCESLLTWIQTFNVDAPCQTVEDLTNGVVMAQVLQKIDPAYFDENWLNRIKTEVGDNWRLKISNLKKILKGILDYNHEILGQQINDFTLPDVNLIGEHSDAAELGRMLQLILGCAVNCEQKQEYIQAIMMMEESVQHVVMTAIQELMSKESPVSAGNDAYVDLDRQLKKTTEELNEALSAKEEIAQRCHELDMQVAALQEEKSSLLAENQVLMERLNQSDSIEDPNAPAGRRHLQLQTQLEQLQEETFRLEAAKDDYRIRCEELEKEISELRQQNDELTTLADEAQSLKDEIDVLRHSSDKVSKLEGQVESYKKKLEDLGDLRRQVKLLEEKNTMYMQNTVSLEEELRKANAARSQLETYKRQVVELQNRLSEESKKADKLDFEYKRLKEKVDSLQKEKDRLRTERDSLKETIEELRCVQAQEGQLTTQGLMPLGSQESSDSLAAEIVTPEIREKLIRLQHENKMLKLNQEGSDNEKIALLQSLLDDANLRKNELETENRLVNQRLLEVQSQVEELQKSLQDQGSKAEDSVLLKKKLEEHLEKLHEANNELQKKRAIIEDLEPRFNNSSLKIEELQEALRKKEEEMKQMEERYKKYLEKAKSVIRTLDPKQNQGAAPEIQALKNQLQERDRLFHSLEKEYEKTKSQREMEEKYIVSAWYNMGMTLHKKAAEDRLASTGSGQSFLARQRQATSSRRAYPGHVQPATAR
9 A.U | GFP-WT-HOOK3, Q86VS8 S238E; S707E (protein) MFSVESLERAELCESLLTWIQTFNVDAPCQTVEDLTNGVVMAQVLQKIDPAYFDENWLNRIKTEVGDNWRLKISNLKKILKGILDYNHEILGQQINDFTLPDVNLIGEHSDAAELGRMLQLILGCAVNCEQKQEYIQAIMMMEESVQHVVMTAIQELMSKESPVSAGNDAYVDLDRQLKKTTEELNEALSAKEEIAQRCHELDMQVAALQEEKSSLLAENQVLMERLNQSDSIEDPNEPAGRRHLQLQTQLEQLQEETFRLEAAKDDYRIRCEELEKEISELRQQNDELTTLADEAQSLKDEIDVLRHSSDKVSKLEGQVESYKKKLEDLGDLRRQVKLLEEKNTMYMQNTVSLEEELRKANAARSQLETYKRQVVELQNRLSEESKKADKLDFEYKRLKEKVDSLQKEKDRLRTERDSLKETIEELRCVQAQEGQLTTQGLMPLGSQESSDSLAAEIVTPEIREKLIRLQHENKMLKLNQEGSDNEKIALLQSLLDDANLRKNELETENRLVNQRLLEVQSQVEELQKSLQDQGSKAEDSVLLKKKLEEHLEKLHEANNELQKKRAIIEDLEPRFNNSSLKIEELQEALRKKEEEMKQMEERYKKYLEKAKSVIRTLDPKQNQGAAPEIQALKNQLQERDRLFHSLEKEYEKTKSQREMEEKYIVSAWYNMGMTLHKKAAEDRLASTGSGQSFLARQRQATSSRREYPGHVQPATAR
